Values quoted from earlier work in patent US10500169B2, “Supression of IgE production by compounds derived from traditional chinese medicine” (Sean N. Parker Foundation, priority 2014, dated 2019).

Test system: peanut allergic patients

B1: TNX-901: anti-IgE antibody (antibody, chains of the INN, looked up, V domains shown)
VH: QVQLVQSGAEVKKPGASVKVSCKASGYTFSMYWLEWVRQAPGHGLEWVGEISPGTFTTNYNEKFKARATFTADTSTNTAYMELSSLRSEDTAVYYCARFSHFSGSNYDYFDYWGQGTLVTVSS
VL: DILLTQSPGTLSLSPGERATLSCRASQSIGTNIHWYQQKPGQAPRLLIKYASESISGIPSRFSGSGSGTDFTLTISRLEPEDFAMYYCQQSDSWPTTFGQGTKVEIK
**Q.** For B1, which “median threshold of sensitivity to peanut after treatment” value (increased from 178 mg peanut protein) is on record?
**A.** 2.8 grams

**Q.** And the “symptoms following peanut challenge” value (vs placebo group)?
**A.** significant decrease in symptoms
